Legend:
Anti-DSG2 antibody [1] = assay: anti-DSG2 antibody MSD assay; fraction C; inhibition of the signal of anti-DSG2 antibody at 1000 ng/mL (control)
Anti-DSG2 antibody [2] = assay: anti-DSG2 antibody MSD assay; fraction C; inhibition of the signal of anti-DSG2 antibody at 200 ng/mL (control)
[3] = Dynamic light scattering (DLS) of DSG2 fusion polypeptides; assay type: physicochemical; details: for PDI: polymer distribution index
Source text: 6 candidates were compared to the reference sample.

anti-DSG2 antibody [4] = assay: Anti-DSG2 antibody Meso Scale Discovery (MSD) blocking assay, anti-DSG2 antibody controls; assay type: binding; details: for ability to bind to and block anti-DSG2 antibody: MSD assay; for % inhibition: fraction C
Procedure: (§1) The DSG2 fusion polypeptides were tested for the ability to block anti-DSG2 antibody by an anti-DSG2 antibody Meso Scale Discovery (MSD) assay. […] The DSG2 fusion polypeptides were subjected to size exclusion chromatography and different elution fractions were examined. […] As shown in Table 9 and FIG. 4B, FIG. 4C, and FIG. 4D, enriching for fraction C improved the ability of the DSG2 fusion polypeptides to block ARVC patient serum.

[5] = Melting temperature Tm of DSG2 fusion polypeptides; assay type: physicochemical
Source text: As the temperature increased, the aggregates began to move, unfold and spread apart.

Anti-DSG2 antibody [6] = assay: electrochemical immunoassay; blocking of anti-DSG2 antibodies (500 ng/mL) binding to DSG2 extracellular domain; fusion polypeptide 5 mg/mL as printed
[7] = tested on: ARVC serum (serum obtained from ARVC patients); assay: Anti-DSG2 antibody Meso Scale Discovery (MSD) blocking assay, ARVC serum; assay type: binding, human; details: for % inhibition: fraction C; for effect of enriching for fraction C on ability to block ARVC patient serum: size exclusion fraction C vs whole preparation, FIG. 4B-4D
Procedure: as §1

[8] = sample: Anti-DSG2 antibody (200 ng/mL) control
[9] = sample: Anti-DSG2 antibody (1000 ng/mL) control

DSG2-EAAAK-(IgG1)Fc (Fc fusion)
% inhibition (Anti-DSG2 antibody [1]): 85.5% | % inhibition (Anti-DSG2 antibody [2]): 61.2%

DSG2FP#7: DSG2 extracellular domain (50-609 of SEQ ID NO: 1); GGGGS peptide linker; IgG4 Fc (S228P, L235E, P329G) (SEQ ID NO: 32)
Peak 1 mass % [3]: ~97% | Peak 1 mode diameter [3]: 86.23 nm | PDI [3]: 0.30 | ability to bind to and block anti-DSG2 antibody (anti-DSG2 antibody [4]): able to bind to and block anti-DSG2 antibodies | Tm1 [5]: 53.4 °C | Tm2 [5]: 60.0 °C

DSG2-(IgG4)Fc (Fc fusion)
% inhibition (Anti-DSG2 antibody [6]): > 80%

DSG2FP#6: DSG2 extracellular domain (50-609 of SEQ ID NO: 1); amino acids 99-327 of IgG4 (S228P, L235E, P329G) (SEQ ID NO: 32)
Peak 1 mass % [3]: ~99% | Peak 1 mode diameter [3]: 98.03 nm | PDI [3]: 0.32 | ability to bind to and block anti-DSG2 antibody (anti-DSG2 antibody [4]): able to bind to and block anti-DSG2 antibodies | Tm1 [5]: 51.1 °C | Tm2 [5]: 60.0 °C

DSG2FP#5: amino acids 104-330 of IgG1 (L234A, L235A, P329G; SEQ ID NO: 31); DSG2 extracellular domain (50-609 of SEQ ID NO: 1)
Peak 1 mass % [3]: ~99% | Peak 1 mode diameter [3]: 76.72 nm | PDI [3]: 0.31 | ability to bind to and block anti-DSG2 antibody (anti-DSG2 antibody [4]): able to bind to and block anti-DSG2 antibodies | Tm1 [5]: 65.0 °C

DSG2-(IgG1)Fc (Fc fusion)
% inhibition (Anti-DSG2 antibody [1]): 81.6% | % inhibition (Anti-DSG2 antibody [2]): 54.5%

DSG2-GGGGS-(IgG4)Fc (Fc fusion)
% inhibition (Anti-DSG2 antibody [6]): > 80%

DSG2-GGGGS-(IgG1)Fc (Fc fusion)
% inhibition (Anti-DSG2 antibody [1]): 85.5% | % inhibition (Anti-DSG2 antibody [2]): 61.2%

B1: DSG2FP#3: DSG2 extracellular domain (50-609 of SEQ ID NO: 1); linker GGGGS; amino acids 104-330 of IgG1 (L234A, L235A, P329G) (protein)
chain: AWITAPVALREGEDLSKKNPIAKIHSDLAEERGLKITYKYTGKGITEPPFGIFVFNKDTGELNVTSILDREETPFFLLTGYALDARGNNVEKPLELRIKVLDINDNEPVFTQDVFVGSVEELSAAHTLVMKINATDADEPNTLNSKISYRIVSLEPAYPPVFYLNKDTGEIYTTSVTLDREEHSSYTLTVEARDGNGEVTDKPVKQAQVQIRILDVNDNIPVVENKVLEGMVEENQVNVEVTRIKVFDADEIGSDNWLANFTFASGNEGGYFHIETDAQTNEGIVTLIKEVDYEEMKNLDFSVIVANKAAFHKSIRSKYKPTPIPIKVKVKNVKEGIHFKSSVISIYVSESMDRSSKGQIIGNFQAFDEDTGLPAHARYVKLEDRDNWISVDSVTSEIKLAKLPDFESRYVQNGTYTVKIVAISEDYPRKTITGTVLINVEDINDNCPTLIEPVQTICHDAEYVNVTAEDLDGHPNSGPFSFSVIDKPPGMAEKWKIARQESTSVLLQQSEKKLGRSEIQFLISDNQGFSCPEKQVLTLTVCECLHGSGCREAQHDSYVGGGGGGSDKTHTCPPCPAPEAAGGPSVFLFPPKPKDTLMISRTPEVTCVVVDVSHEDPEVKFNWYVDGVEVHNAKTKPREEQYNSTYRVVSVLTVLHQDWLNGKEYKCKVSNKALGAPIEKTISKAKGQPREPQVYTLPPSRDELTKNQVSLTCLVKGFYPSDIAVEWESNGQPENNYKTTPPVLDSDGSFFLYSKLTVDKSRWQQGNVFSCSVMHEALHNHYTQKSLSLSPGK
Peak 1 mass % [3]: ~91% | Peak 1 mode diameter [3]: 43.23 nm | PDI [3]: 0.30 | % inhibition ([7]; sample: ARVC serum 1): 9.2% | % inhibition ([7]; sample: ARVC serum 2): 27.6% | % inhibition ([7]; sample: ARVC serum 3): 15.5% | % inhibition ([7]; sample: ARVC serum 4): −5.6% | % inhibition ([7]; sample: ARVC serum 5): 20.6% | effect of enriching for fraction C on ability to block ARVC patient serum [7]: more pronounced | ability to bind to and block anti-DSG2 antibody (anti-DSG2 antibody [4]): able to bind to and block anti-DSG2 antibodies | % inhibition (anti-DSG2 antibody [4]; [8]): 61.2% | % inhibition (anti-DSG2 antibody [4]; [9]): 85.5% | % inhibition (anti-DSG2 antibody [4]; sample: no antibody control): 0.7% | Tm1 [5]: 51.3 °C | Tm2 [5]: 62.8 °C | Tm3 [5]: 82.1 °C

B2: DSG2FP#4: DSG2 extracellular domain (50-609 of SEQ ID NO: 1); linker EAAAK; amino acids 104-330 of IgG1 (L234A, L235A, P329G) (protein)
chain: AWITAPVALREGEDLSKKNPIAKIHSDLAEERGLKITYKYTGKGITEPPFGIFVFNKDTGELNVTSILDREETPFFLLTGYALDARGNNVEKPLELRIKVLDINDNEPVFTQDVFVGSVEELSAAHTLVMKINATDADEPNTLNSKISYRIVSLEPAYPPVFYLNKDTGEIYTTSVTLDREEHSSYTLTVEARDGNGEVTDKPVKQAQVQIRILDVNDNIPVVENKVLEGMVEENQVNVEVTRIKVFDADEIGSDNWLANFTFASGNEGGYFHIETDAQTNEGIVTLIKEVDYEEMKNLDFSVIVANKAAFHKSIRSKYKPTPIPIKVKVKNVKEGIHFKSSVISIYVSESMDRSSKGQIIGNFQAFDEDTGLPAHARYVKLEDRDNWISVDSVTSEIKLAKLPDFESRYVQNGTYTVKIVAISEDYPRKTITGTVLINVEDINDNCPTLIEPVQTICHDAEYVNVTAEDLDGHPNSGPFSFSVIDKPPGMAEKWKIARQESTSVLLQQSEKKLGRSEIQFLISDNQGFSCPEKQVLTLTVCECLHGSGCREAQHDSYVGEAAAKDKTHTCPPCPAPEAAGGPSVFLFPPKPKDTLMISRTPEVTCVVVDVSHEDPEVKFNWYVDGVEVHNAKTKPREEQYNSTYRVVSVLTVLHQDWLNGKEYKCKVSNKALGAPIEKTISKAKGQPREPQVYTLPPSRDELTKNQVSLTCLVKGFYPSDIAVEWESNGQPENNYKTTPPVLDSDGSFFLYSKLTVDKSRWQQGNVFSCSVMHEALHNHYTQKSLSLSPGK
Peak 1 mass % [3]: ~96% | Peak 1 mode diameter [3]: 44.87 nm | PDI [3]: 0.32 | % inhibition ([7]; sample: ARVC serum 1): 6.0% | % inhibition ([7]; sample: ARVC serum 2): 9.2% | % inhibition ([7]; sample: ARVC serum 3): −8.0% | % inhibition ([7]; sample: ARVC serum 4): 0.8% | % inhibition ([7]; sample: ARVC serum 5): 2.0% | ability to bind to and block anti-DSG2 antibody (anti-DSG2 antibody [4]): able to bind to and block anti-DSG2 antibodies | % inhibition (anti-DSG2 antibody [4]; [8]): 61.2% | % inhibition (anti-DSG2 antibody [4]; [9]): 85.5% | % inhibition (anti-DSG2 antibody [4]; sample: no antibody control): 0.7% | Tm1 [5]: 50.7 °C | Tm2 [5]: 63.1 °C | Tm3 [5]: 81.5 °C

B3: DSG2FP#2: DSG2 extracellular domain (amino acids 50-609 of SEQ ID NO: 1); amino acids 104-330 of IgG1 (L234A, L235A, P329G) (SEQ ID NO: 31) (protein)
chain: AWITAPVALREGEDLSKKNPIAKIHSDLAEERGLKITYKYTGKGITEPPFGIFVFNKDTGELNVTSILDREETPFFLLTGYALDARGNNVEKPLELRIKVLDINDNEPVFTQDVFVGSVEELSAAHTLVMKINATDADEPNTLNSKISYRIVSLEPAYPPVFYLNKDTGEIYTTSVTLDREEHSSYTLTVEARDGNGEVTDKPVKQAQVQIRILDVNDNIPVVENKVLEGMVEENQVNVEVTRIKVFDADEIGSDNWLANFTFASGNEGGYFHIETDAQTNEGIVTLIKEVDYEEMKNLDFSVIVANKAAFHKSIRSKYKPTPIPIKVKVKNVKEGIHFKSSVISIYVSESMDRSSKGQIIGNFQAFDEDTGLPAHARYVKLEDRDNWISVDSVTSEIKLAKLPDFESRYVQNGTYTVKIVAISEDYPRKTITGTVLINVEDINDNCPTLIEPVQTICHDAEYVNVTAEDLDGHPNSGPFSFSVIDKPPGMAEKWKIARQESTSVLLQQSEKKLGRSEIQFLISDNQGFSCPEKQVLTLTVCECLHGSGCREAQHDSYVGDKTHTCPPCPAPEAAGGPSVFLFPPKPKDTLMISRTPEVTCVVVDVSHEDPEVKFNWYVDGVEVHNAKTKPREEQYNSTYRVVSVLTVLHQDWLNGKEYKCKVSNKALGAPIEKTISKAKGQPREPQVYTLPPSRDELTKNQVSLTCLVKGFYPSDIAVEWESNGQPENNYKTTPPVLDSDGSFFLYSKLTVDKSRWQQGNVFSCSVMHEALHNHYTQKSLSLSPGK
Peak 1 mass % [3]: ~96% | Peak 1 mode diameter [3]: 40.04 nm | PDI [3]: 0.32 | % inhibition ([7]; sample: ARVC serum 1): 3.0% | % inhibition ([7]; sample: ARVC serum 2): 33.5% | % inhibition ([7]; sample: ARVC serum 3): 26.0% | % inhibition ([7]; sample: ARVC serum 4): 51.1% | % inhibition ([7]; sample: ARVC serum 5): 41.8% | effect of enriching for fraction C on ability to block ARVC patient serum [7]: more pronounced | ability to bind to and block anti-DSG2 antibody (anti-DSG2 antibody [4]): able to bind to and block anti-DSG2 antibodies | % inhibition (anti-DSG2 antibody [4]; [8]): 54.5% | % inhibition (anti-DSG2 antibody [4]; [9]): 81.6% | % inhibition (anti-DSG2 antibody [4]; sample: no antibody control): −19.1% | Tm1 [5]: 52.0 °C | Tm2 [5]: 61.9 °C | Tm3 [5]: 81.9 °C
